In patent US20190212340A1, “AN ELISA-LIKE ASSAY FOR QUANTIFYING ENZYMATIC ACTIVITIES OF MONO-ADP-RIBOSYLTRANSFERASES” (University of Southern California, priority 2016, published 2019):

Experiments:
[1] = substrate: NC(=O)c1ccc[n+]([C@@H]2O[C@H](COP(=O)([O-])OP(=O)(O)OC[C@H]3O[C@@H](n4cnc5c(N)ncnc54)C(O)[C@H]3O)[C@H](O)C2O)c1; assay: Km determination of PARP15 automodification by M2-based ELISA (Experiment No. 1); format: biochemical, human; conditions: other: 500 nM PARP15, NAD+ 5 μM to 4 mM; pH 7.4
Experimental: 96-well ELISA plates were coated with reactions in triplicates consisting of 500 nM PARP15 with various concentrations of NAD^+ (5, 10, 20, 30, 40, 200, 400, 1000, 2000 and 4000 μM) in Reaction Buffer (50 mM Tris-HCl, pH 7.4, 2 mM dTT). The reactions were quenched with 20% ice-cold TCA at various time points (0 to 20 minutes). The plates were further incubated for up to 2 hour under room temperature followed by five washes of PBST.
PARP15 automodification assay was performed by adding 50 μg/ml PARP15 to Reaction Buffer with 500 μM NAD^+ in a microcentrifuge tube for 2 hours. Automodified PARP15 was diluted and plated simultaneously on both the ELISA plate and clear pureGrade plate according to manufacturer's protocol. Upon addition of Coomassie Plus (Bradford) Assay Reagent the absorbance of each well was measured on a Synergy H1 Hybrid Multi-Mode Microplate Reader (BioTek, VT). The concentrations of automodified PARP15 in each well were determined through linear regression curve using BSA standards. A standard curve was constructed through a linear correlation of automodified PARP15 concentrations and the corresponding fluorescence signals.

[2] = substrate: NC(=O)c1ccc[n+]([C@@H]2O[C@H](COP(=O)([O-])OP(=O)(O)OC[C@H]3O[C@@H](n4cnc5c(N)ncnc54)C(O)[C@H]3O)[C@H](O)C2O)c1; assay: Enzyme kinetics of PARP15-catalyzed automodification by MLISA (Experiment No. 2); format: biochemical, human; conditions: other: 500 nM PARP15, NAD+ 5-400 μM, Michaelis-Menten fit; pH 7.4
Experimental: To characterize enzyme kinetics, 96-well plates were coated with reactions in triplicates that consist of 500 nM of PARP15 and NAD^+ at varied concentrations (5, 10, 20, 30, 40, 200, and 400 μM) in reaction buffer (50 mM Tris-HCl, pH 7.4, 2 mM DTT). The reactions were quenched with 20% ice-cold TCA at different time points (0, 2.5, 5, 7.5, 10, 12.5, 15, and 20 minutes). The plates were further incubated for up to 2 hours under room temperature followed by five washes with 200 μL of PBST. Kinetic parameters were calculated by fitting data to Michaelis-Menten model implemented in GraphPad Prism.
To determine reaction rates, standard curves were generated for each reaction plate. […] Upon additions of Coomassie Plus (Bradford) assay reagents to clear 96-well pureGrade plates, the absorbance at 595 nm of each well was measured by Synergy H1 Hybrid Multi-Mode Microplate Reader. The concentrations of automodified PARP15 were calculated through fitting to linear regression curves generated with BSA standards. Standard curves were constructed through linear correlation of the determined concentrations of automodified PARP15 with the fluorescence intensities of the corresponding wells measured on 96-well ELISA plates.

B1: PARP15 (Homo sapiens) (protein)
chain: MGHHHHHHIEGRNLPEHWTDMNHQLFCMVQLEPGQSEYNTIKDKFTRTCSSYAIEKIERIQNAFLWQSYQVKKRQMDIKNDHKNNERLLFHGTDADSVPYVNQHGFNRSCAGKNAVSYGKGTYFAVDASYSAKDTYSKPDSNGRKHMYVVRVLTGVFTKGRAGLVTPPPKNPHNPTDLFDSVTNNTRSPKLFVVFFDNQAYPEYLITFTA
notes: The catalytic domains of PARP15 (residue 481-678); His6 (N); Factor Xa cleavage site (IEGR) (N); made in house; host or cells: E. coli BL21 (DE3)
B1 showed a Km [1] of 7.148 ± 3.138 µM, a Km [2] of 4.5 ± 2.9 µM and a kcat [2] of 0.000183 ± 1.7e-05 s⁻¹.
